Results from US10947289B2, “Glyco-modified atrial natriuretic peptide” (priority 2013, dated 2021).

How the values were obtained:
human GC-A = biological target: T1, human GC-A (Homo sapiens, UniProt P16066); test: cGMP elevating activity in CHO/human GC-A cells (Test Example 1); type: cell-based
T1 construct: expressed in transfected cells; host or cells: CHO cells
T1 sequence (P16066 33-1061): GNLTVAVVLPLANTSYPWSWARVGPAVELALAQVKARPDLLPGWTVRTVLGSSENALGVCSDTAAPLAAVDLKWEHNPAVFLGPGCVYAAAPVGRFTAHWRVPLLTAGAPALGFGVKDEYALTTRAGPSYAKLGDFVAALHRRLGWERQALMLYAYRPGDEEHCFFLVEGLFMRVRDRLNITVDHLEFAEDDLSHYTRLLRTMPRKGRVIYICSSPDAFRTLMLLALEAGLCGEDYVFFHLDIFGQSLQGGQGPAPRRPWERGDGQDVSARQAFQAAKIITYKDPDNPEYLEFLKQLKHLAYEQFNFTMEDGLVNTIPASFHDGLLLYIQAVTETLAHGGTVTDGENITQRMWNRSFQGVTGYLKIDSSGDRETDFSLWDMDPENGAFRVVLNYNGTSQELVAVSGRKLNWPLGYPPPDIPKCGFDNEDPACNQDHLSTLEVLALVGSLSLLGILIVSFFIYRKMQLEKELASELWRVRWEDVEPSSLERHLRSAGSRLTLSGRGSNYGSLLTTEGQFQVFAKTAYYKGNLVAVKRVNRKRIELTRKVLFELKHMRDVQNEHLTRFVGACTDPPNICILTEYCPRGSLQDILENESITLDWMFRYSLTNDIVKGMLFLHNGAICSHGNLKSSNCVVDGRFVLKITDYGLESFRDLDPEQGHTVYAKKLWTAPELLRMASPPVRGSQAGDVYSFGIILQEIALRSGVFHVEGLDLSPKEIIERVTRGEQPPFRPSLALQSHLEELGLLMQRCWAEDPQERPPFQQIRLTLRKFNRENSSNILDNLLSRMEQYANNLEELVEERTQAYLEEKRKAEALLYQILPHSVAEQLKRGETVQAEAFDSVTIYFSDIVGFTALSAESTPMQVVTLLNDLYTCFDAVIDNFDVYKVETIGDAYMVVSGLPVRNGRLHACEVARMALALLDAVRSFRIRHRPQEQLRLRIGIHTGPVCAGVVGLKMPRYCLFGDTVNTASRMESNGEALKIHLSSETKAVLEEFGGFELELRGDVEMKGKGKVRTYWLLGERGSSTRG
Method in brief: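 cGMP in lysates was read by HTRF after a 15 min peptide exposure of GC-A-expressing CHO cells in a CO2 incubator, following 10 min room-temperature preincubation with 1.6 mM IBMX in KRB. T/C values were normalised between solvent wells (0) and 1 nM ANP wells (1).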

[1] = Detection of test substance in rat plasma by LC-MS/MS (Test Example 3); type: in vivo; conditions: rat plasma, 100 nmol/kg i.v., LC-MS/MS; time at which the test substance was finally detected
Experimental: Before the administration and 15, 30, 60, 90, 120, 180, and 240 minutes after the administration, blood was sampled (200 μL/sampling) over time from the jugular vein. The blood samples were immediately left on ice.
The collected blood samples were centrifuged at 5000 rpm at 4° C. for 5 minutes by use of a centrifuge (Sigma 4K15, rotor: Nr12130-H). The separated plasma samples were divided into two types (samples for PK measurement and for cGMP measurement) and stored at −80° C. until measurement.
An internal standard (20 μL (500 nM) of a stable isotope of hANP) and an acetic acid mixed solvent (AcOH/distilled water/DMSO=5/3/2, v/v/v) were added to 50 μL of each rat plasma sample prepared in (1) and then mixed therewith. The mixture was transferred to Amicon Ultra-0.5 50K (Millipore Corp., MA) and centrifuged at 14000 rpm at 15° C. for 30 minutes. The obtained filtrate was transferred to Amicon Ultra-0.5 3K (Millipore Corp., MA) and centrifuged again under the aforementioned conditions. The solution remaining on the filter was recovered and transferred to a 96-well deep well plate. The content of the test substance was measured by LC-MS/MS (LC: Shimadzu LC-10ADVP (Shimadzu Corp.), MS/MS: API 4000 QTrap (AB SCIEX)) to calculate the concentration in plasma. The time at which the test substance was finally detected is shown in the rightmost column of Table 2.

SMILES | EC50 (human GC-A) [nM] | Maximum time of detection after administration [1] [h]
CC[C@H](C)[C@@H]1NC(=O)[C@H](CCCNC(=N)N)NC(=O)[C@H](CC(=O)O)NC(=O)[C@H](CCSC)NC(=O)[C@H](CCCNC(=N)N)NC(=O)CNC(=O)CNC(=O)[C@H](Cc2ccccc2)NC(=O)[C@@H](NC(=O)[C@H](CO)NC(=O)[C@H](CO)NC(=O)[C@H](CCCNC(=N)N)NC(=O)[C@H](CCCNC(=N)N)NC(=O)[C@H](CC(C)C)NC(=O)[C@H](CO)NC(=O)CNC(=O)[C@H](CCCCNC(=O)CO[C@@H]2O[C@H](CO)[C@@H](O[C@@H]3O[C@H](CO)[C@@H](O[C@@H]4O[C@H](CO[C@H]5O[C@H](CO)[C@@H](O)[C@H](O)[C@@H]5O[C@@H]5O[C@H](CO)[C@@H](O[C@@H]6O[C@H](CO[C@]7(C(=O)O)C[C@H](O)[C@@H](NC(C)=O)[C@H]([C@H](O)[C@H](O)CO)O7)[C@H](O)[C@H](O)[C@H]6O)[C@H](O)[C@H]5NC(C)=O)[C@@H](O)[C@H](O[C@H]5O[C@H](CO)[C@@H](O)[C@H](O)[C@@H]5O[C@@H]5O[C@H](CO)[C@@H](O[C@@H]6O[C@H](CO[C@]7(C(=O)O)C[C@H](O)[C@@H](NC(C)=O)[C@H]([C@H](O)[C@H](O)CO)O7)[C@H](O)[C@H](O)[C@H]6O)[C@H](O)[C@H]5NC(C)=O)[C@@H]4O)[C@H](O)[C@H]3NC(C)=O)[C@H](O)[C@H]2NC(C)=O)NC(=O)CO[C@@H]2O[C@H](CO)[C@@H](O[C@@H]3O[C@H](CO)[C@@H](O[C@@H]4O[C@H](CO[C@H]5O[C@H](CO)[C@@H](O)[C@H](O)[C@@H]5O[C@@H]5O[C@H](CO)[C@@H](O[C@@H]6O[C@H](CO[C@]7(C(=O)O)C[C@H](O)[C@@H](NC(C)=O)[C@H]([C@H](O)[C@H](O)CO)O7)[C@H](O)[C@H](O)[C@H]6O)[C@H](O)[C@H]5NC(C)=O)[C@@H](O)[C@H](O[C@H]5O[C@H](CO)[C@@H](O)[C@H](O)[C@@H]5O[C@@H]5O[C@H](CO)[C@@H](O[C@@H]6O[C@H](CO[C@]7(C(=O)O)C[C@H](O)[C@@H](NC(C)=O)[C@H]([C@H](O)[C@H](O)CO)O7)[C@H](O)[C@H](O)[C@H]6O)[C@H](O)[C@H]5NC(C)=O)[C@@H]4O)[C@H](O)[C@H]3NC(C)=O)[C@H](O)[C@H]2NC(C)=O)CSSC[C@@H](C(=O)N[C@@H](CC(N)=O)C(=O)N[C@@H](CO)C(=O)N[C@@H](Cc2ccccc2)C(=O)N[C@@H](CCCNC(=N)N)C(=O)N[C@@H](Cc2ccc(O)cc2)C(=O)O)NC(=O)CNC(=O)[C@H](CC(C)C)NC(=O)CNC(=O)[C@H](CO)NC(=O)[C@H](CCC(N)=O)NC(=O)[C@H](C)NC(=O)CNC1=O [Compound 2-14, SG-(SG-)Lys-Gly-hANP(1-28)] | 0.6 | 1.5
CC[C@H](C)[C@@H]1NC(=O)[C@H](CCCNC(=N)N)NC(=O)[C@H](CC(=O)O)NC(=O)[C@H](CCSC)NC(=O)[C@H](CCCNC(=N)N)NC(=O)CNC(=O)CNC(=O)[C@H](Cc2ccccc2)NC(=O)[C@@H](NC(=O)[C@H](CO)NC(=O)[C@H](CO)NC(=O)[C@H](CCCNC(=N)N)NC(=O)[C@H](CCCNC(=N)N)NC(=O)[C@H](CC(C)C)NC(=O)[C@H](CO)NC(=O)[C@@H](N)CC(=O)N[C@@H]2O[C@H](CO)[C@@H](O[C@@H]3O[C@H](CO)[C@@H](O[C@@H]4O[C@H](CO[C@H]5O[C@H](CO)[C@@H](O)[C@H](O)[C@@H]5O[C@@H]5O[C@H](CO)[C@@H](O[C@@H]6O[C@H](CO[C@]7(C(=O)O)C[C@H](O)[C@@H](NC(C)=O)[C@H]([C@H](O)[C@H](O)CO)O7)[C@H](O)[C@H](O)[C@H]6O)[C@H](O)[C@H]5NC(C)=O)[C@@H](O)[C@H](O[C@H]5O[C@H](CO)[C@@H](O)[C@H](O)[C@@H]5O[C@@H]5O[C@H](CO)[C@@H](O[C@@H]6O[C@H](CO[C@]7(C(=O)O)C[C@H](O)[C@@H](NC(C)=O)[C@H]([C@H](O)[C@H](O)CO)O7)[C@H](O)[C@H](O)[C@H]6O)[C@H](O)[C@H]5NC(C)=O)[C@@H]4O)[C@H](O)[C@H]3NC(C)=O)[C@H](O)[C@H]2NC(C)=O)CSSC[C@@H](C(=O)N[C@@H](CC(N)=O)C(=O)N[C@@H](CO)C(=O)N[C@@H](Cc2ccccc2)C(=O)N[C@@H](CCCNC(=N)N)C(=O)N[C@@H](Cc2ccc(O)cc2)C(=O)O)NC(=O)CNC(=O)[C@H](CC(C)C)NC(=O)CNC(=O)[C@H](CO)NC(=O)[C@H](CCC(N)=O)NC(=O)[C@H](C)NC(=O)CNC1=O [Compound 2-3, (SG-)Asn-hANP(1-28)] | 0.12 | 2
CC[C@H](C)[C@@H]1NC(=O)[C@H](CCCNC(=N)N)NC(=O)[C@H](CC(=O)O)NC(=O)[C@H](CCSC)NC(=O)[C@H](CCCNC(=N)N)NC(=O)CNC(=O)CNC(=O)[C@H](Cc2ccccc2)NC(=O)[C@@H](NC(=O)[C@H](CO)NC(=O)[C@H](CO)NC(=O)[C@H](CCCNC(=N)N)NC(=O)[C@H](CCCNC(=N)N)NC(=O)[C@H](CC(C)C)NC(=O)[C@H](CO)NC(=O)CCSCC(=O)NCCO[C@@H]2O[C@H](CO)[C@@H](O[C@@H]3O[C@H](CO)[C@@H](O[C@@H]4O[C@H](CO[C@H]5O[C@H](CO)[C@@H](O)[C@H](O)[C@@H]5O[C@@H]5O[C@H](CO)[C@@H](O[C@@H]6O[C@H](CO[C@]7(C(=O)O)C[C@H](O)[C@@H](NC(C)=O)[C@H]([C@H](O)[C@H](O)CO)O7)[C@H](O)[C@H](O)[C@H]6O)[C@H](O)[C@H]5NC(C)=O)[C@@H](O)[C@H](O[C@H]5O[C@H](CO)[C@@H](O)[C@H](O)[C@@H]5O[C@@H]5O[C@H](CO)[C@@H](O[C@@H]6O[C@H](CO[C@]7(C(=O)O)C[C@H](O)[C@@H](NC(C)=O)[C@H]([C@H](O)[C@H](O)CO)O7)[C@H](O)[C@H](O)[C@H]6O)[C@H](O)[C@H]5NC(C)=O)[C@@H]4O)[C@H](O)[C@H]3NC(C)=O)[C@H](O)[C@H]2NC(C)=O)CSSC[C@@H](C(=O)N[C@@H](CC(N)=O)C(=O)N[C@@H](CO)C(=O)N[C@@H](Cc2ccccc2)C(=O)N[C@@H](CCCNC(=N)N)C(=O)N[C@@H](Cc2ccc(O)cc2)C(=O)O)NC(=O)CNC(=O)[C@H](CC(C)C)NC(=O)CNC(=O)[C@H](CO)NC(=O)[C@H](CCC(N)=O)NC(=O)[C@H](C)NC(=O)CNC1=O [Compound 2-25, SG-thioacetamide-hANP(1-28)] | 0.054 | 2
CC[C@H](C)[C@@H]1NC(=O)[C@H](CCCNC(=N)N)NC(=O)[C@H](CC(=O)O)NC(=O)[C@H](CCSC)NC(=O)[C@H](CCCNC(=N)N)NC(=O)CNC(=O)CNC(=O)[C@H](Cc2ccccc2)NC(=O)[C@@H](NC(=O)[C@H](CO)NC(=O)[C@H](CO)NC(=O)[C@H](CCCNC(=N)N)NC(=O)[C@H](CCCNC(=N)N)NC(=O)[C@H](CC(C)C)NC(=O)[C@H](CO)NC(=O)CO[C@@H]2O[C@H](CO)[C@@H](O[C@@H]3O[C@H](CO)[C@@H](O[C@@H]4O[C@H](CO[C@H]5O[C@H](CO)[C@@H](O)[C@H](O)[C@@H]5O[C@@H]5O[C@H](CO)[C@@H](O[C@@H]6O[C@H](CO[C@]7(C(=O)O)C[C@H](O)[C@@H](NC(C)=O)[C@H]([C@H](O)[C@H](O)CO)O7)[C@H](O)[C@H](O)[C@H]6O)[C@H](O)[C@H]5NC(C)=O)[C@@H](O)[C@H](O[C@H]5O[C@H](CO)[C@@H](O)[C@H](O)[C@@H]5O[C@@H]5O[C@H](CO)[C@@H](O[C@@H]6O[C@H](CO[C@]7(C(=O)O)C[C@H](O)[C@@H](NC(C)=O)[C@H]([C@H](O)[C@H](O)CO)O7)[C@H](O)[C@H](O)[C@H]6O)[C@H](O)[C@H]5NC(C)=O)[C@@H]4O)[C@H](O)[C@H]3NC(C)=O)[C@H](O)[C@H]2NC(C)=O)CSSC[C@@H](C(=O)N[C@@H](CC(N)=O)C(=O)N[C@@H](CO)C(=O)N[C@@H](Cc2ccccc2)C(=O)N[C@@H](CCCNC(=N)N)C(=O)N[C@@H](Cc2ccc(O)cc2)C(=O)O)NC(=O)CNC(=O)[C@H](CC(C)C)NC(=O)CNC(=O)[C@H](CO)NC(=O)[C@H](CCC(N)=O)NC(=O)[C@H](C)NC(=O)CNC1=O [Compound 2-1, SG-hANP(1-28)] | – | 3
